In article PMC3777412:

Assays:
pY580 peptide (human) = assay: SPR
pY542 peptide (human) = assay: SPR

Kd (pY580 peptide (human)): 294 µM
Kd (pY542 peptide (human)): 15.1 µM
Substance: C-SH2 domain of Shp2, histidine-tagged (domain or fragment)
